Laboratory results as given in PMC6557629.

Molecular target: Recombinant murine serum amyloid A isoform 1.1 (murine)
Assay: cross-linking; SAA-POPC complexes hydrolyzed by sPLA2-III (0.5 mg/ml protein) with glutaraldehyde 0.01-0.08%, 30 min at 24°C, 50 mM sodium phosphate, 150 mM NaCl, pH 7.5; quenched with 100 mM Tris; SDS PAGE

stoichiometry N: 6
Substance: Recombinant murine serum amyloid A isoform 1.1 (natural protein)
